# According to patent publication US20240376149A1, “Novel Modulators of GABABR1a” (VIB VZW, priority 2021, published 2024):
# *1 amine or outer side, *2 acyl side, *3 side chain or, on linkers, in order; H or OH if unused. Where a SMILES comes first, the peptide text is derived from it. Where no end group is shown, it is not given here. [ ]: non-standard residue; d: D form. The star is where a group is joined. X1 = CCn1cc(C[C@H](N[*:1])C(=O)[*:2])c2ccccc21; X3 = COc1ccc(C[C@H](N[*:1])C(=O)[*:2])cc1C; X4 = O=C([C@H](Cc1ccc(CO)cc1)N[*:1])[*:2]; Piperazinyl(4-Me) = CN1CCN(*)CC1; Ac4c = NC1(C(=O)O)CCC1
# Biological target: T1, Sushi domain 1 of the human GABA B1a receptor (human, UniProt Q9UBS5 26-96)
# T1 construct: Purified recombinant protein from E. coli; also called SD1; GABABR1a-SD1
# Test: ITC, peptide titrated into purified SD1
# Settings: not given
# Experimental: The Sushi-1 protein was dialysed overnight to PBS buffer and diluted to 30 μM in the same buffer. The peptides were resuspended in PBS at a stock concentration of 3 mM and diluted further in the same buffer to 300 μM. ITC experiments were performed on a Microcal ITC200 device. Titrations comprised 26×1.5 μL injections of peptide into protein, with 90 s intervals. An initial injection of ligand (0.5 μL) was made and discarded during data analysis. The data were fitted to a single binding site model using the Microcal LLC ITC₂₀₀. Original software provided by the manufacturer.
# T1 sequence (Q9UBS5 26-96 limits assumed): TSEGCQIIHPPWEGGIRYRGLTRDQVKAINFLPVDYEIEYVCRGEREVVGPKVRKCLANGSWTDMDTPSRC
row,Molecule,Kd [µM]
1,DVHWS [VIB_P23],25.1
2,PIHWS [VIB_P45],38
3,"DIXWS (D-aspartic acid at position 1; position 3 (X) is the non-natural residue F44 = (4-methylphenyl)methanol, Peptidomimetic 5-mer; X marks the non-natural residue) [VIB-0068896]",7.46

# Biological target: T1, Sushi domain 1 of the human GABA B1a …
# Test: FP competition vs FITC-9mer on purified SD1
# Settings: not given
# Experimental: (§1) To screen for GABABR1a binders using unlabelled test compounds, the assay was turned into a competition assay using FITC-9mer. […] To validate this inhibitor assay, the IC50 values were determined of the 17-mer, 9-mer, 5-mer as well as those from 3 negative controls: 10-mer, scrambled 17-mer and a scrambled 9-mer (FIG. 2).
# Based on structural information of DIYWS-SD1 and DIWWS-SD1 co-crystals, 48 peptides containing non-natural residues were manually designed and checked for binding to the GABABR1a SD1 in the FP assay at a concentration of 50 μM. These non-natural peptides were categorized based on the IC50 values obtained in the FP assay (Table 3). […] The listed non-natural 5-mers all share D-aspartate was on position 1 (residue position 4 of the 9-mer), L-isoleucine on position 2 (residue position 5 of the 9-mer), L-tryptophane on position 4 (residue position 7 of the 9-mer) and L-serine on position 5 (residue position 8 of the 9-mer), while position 3 is selected from the list consisting of L-tyrosine, isoethylmethyl-benzene, 6-chloro-3-methyl-1H-indole, methylcyclohexane, ethylcyclohexane, 2-naphthalene, ethylbenzene, 1,1-difluoro-4-cyclohexyl, 4-methyl-1-methoxy-2-methylbenzene, 1-chloro-4-methylbenzene, 4-methylphenyl-methanol, 3-methylbenzoic acid and 4-methylaniline.
Molecule,% inhibition 50 µM [%],IC50 [µM]
"DIXWS (D-aspartic acid at position 1; position 3 (X) is the non-natural residue F86 = 1-chloro-4-methylbenzene, Peptidomimetic 5-mer; X marks the non-natural residue) [VIB-0068912]",66.2,32.7
"DIXWS (D-aspartic acid at position 1; position 3 (X) is the non-natural residue F57 = 4-methylaniline, Peptidomimetic 5-mer; X marks the non-natural residue) [VIB-0068909]",44.2,88.3
"[dD]IYWS-{N‑(1,3,4-thiadiazol-2-yl)amide} (also called VIB-0068870-001; dIYWS*) [VIB-0068870]",34.6,16.5
"{(1-aminocyclobutyl)N‑methanone}-[dD]IYWS (not fully specified, also called *dIYWS) [VIB-0068884]",41.5,100
[dD]IYWS-{N‑(2-(4-methylpiperazin-1-yl)-2-oxoethyl)amide} (also called dIYWS**) [VIB-0068875],41.8,71.2
[dD]IYYS (also called dIYYS) [VIB-0068914],72.4,
[dD]IYWS (also called dIYWS) [VIB-0068902],76.8,
"DIXWS (D-aspartic acid at position 1; position 3 (X) is the non-natural residue F44 = (4-methylphenyl)methanol, Peptidomimetic 5-mer; X marks the non-natural residue) [VIB-0068896]",56.6,48

# Biological target: T1, Sushi domain 1 of the human GABA B1a …
# Test: FP competition vs FITC-9mer on purified SD1
# Settings: not given
# Remark: another data set of the same source
# Experimental: Next, 35 variants of the DVWWG 5-mer peptide containing natural residues were tested in the above described FP assay. The peptides were tested at a concentration of 50 μM.
# (§2) To determine if the peptides of this application were able to disrupt the SD1-9-mer complex, each peptide (in single point or dose-response curve) tested was incubate with SD1 protein for 1 h at RT. After this initially incubation, FITC-9mer was added to the previous mix and incubated during 2 h at RT. The signal intensity was measure in an appropriate plate reader using the following settings: Number of flashes per well: 200; Excitation: F482-16; Dichroic filter: FLP 504; Emission A F530-40; Gain A: 738, Gain B: 736. The assay was conducted in a 384-well plate.
Molecule,% inhibition 50 µM [%],IC50 [µM]
PVHMS [VIB_P44],-7,186
DIHWS [VIB_P37],20,35.6
NIWWG [VIB_P65],41.4,
NIYWS [VIB_P63],19.4,
GIYWS [VIB_P47],53.4,
DIFWS [VIB_P35],55.9,
DIWWG (also called VIB_29) [VIB_P29],75,16.5
DVWWS [VIB_P39],85.5,14
NIWWS [VIB_P66],66.4,
NFYWS [VIB_P58],-7,
NVWWG [VIB_P56],17.9,
SVYWS [VIB_P41],5.28,
PIYWS [VIB_P49],25,
NIYWG [VIB_P68],15.9,
"DIYWS (not fully specified, also called VIB_43; DIYWS) [VIB_P43]",48.6,21.2
DVYWG [VIB_P53],33.5,
GVYWS [VIB_P60],47.5,
DIYWG [VIB_P42],47.9,
NVWWS [VIB_P48],33.5,

# Biological target: T2, GABABR1a-SD1 (SD1-FITC-9mer complex) (Homo sapiens, UniProt Q9UBS5)
# T2 construct: The synthetic gene encoding for residues 26-96 of the Sushi1 protein was cloned into a pFloat-SUMO vector; His-SUMO (with 3C protease site) (N, cleaved yes); made in house; host or cells: E. coli BL21(DE3)
# Test: Fluorescence polarization (FP) competition assay with FITC-9mer
# Type: binding
# Settings: competition with FITC-9mer for SD1
# Experimental: Intrigued by the surprising results of the 5-mer, it was decided to set up a medium- to high-throughput screen to optimize the 5-mer sequence. Several assays were tested to find a reproducible, robust and cost-effective assay that is also suitable for high-throughput screening. A fluorescence polarization (FP) assay was selected. FP measurements are well-known for receptor binding assays. The assay is based on the rotational movement of fluorescently labelled molecules in solution. […] The FP assay was optimized using the FITC labelled sAPP 9-mer (FIG. 1).
# as §1, §2
row,Molecule,IC50 [µM]
1,"CC[C@H](C)[C@H](NC(=O)[C@H](N)CC(=O)O)C(=O)N[C@@H](Cc1ccc(O)cc1)C(=O)N[C@@H](Cc1c[nH]c2ccccc12)C(=O)N[C@@H](CO)C(=O)O [VIB-0068902, dIYWS]",11.6
2,"CC[C@H](C)[C@H](NC(=O)[C@H](N)CC(=O)O)C(=O)N[C@@H](Cc1ccc(O)cc1)C(=O)N[C@@H](Cc1ccc(O)cc1)C(=O)N[C@@H](CO)C(=O)O [VIB-0068914, dIYYS] (H-[dD]IYYS-OH; N-terminus and C-terminus assumed)",25.1

# Same assay, conditions: peptide at 50 μM; inhibition of FITC-9mer binding to SD1
row,Molecule,inhibition at 50 µM [%]
1,CC[C@H](C)[C@H](NC(=O)[C@H](N)CC(=O)O)C(=O)N[C@@H](Cc1ccc(O)cc1)C(=O)N[C@@H](Cc1c[nH]c2ccccc12)C(=O)N[C@@H](CO)C(=O)Nc1nncs1 [VIB-0068870],34.6
2,CC[C@H](C)[C@H](NC(=O)[C@H](N)CC(=O)O)C(=O)N[C@@H](Cc1ccc(O)cc1)C(=O)N[C@@H](Cc1c[nH]c2ccccc12)C(=O)N[C@@H](CO)C(=O)NCC(=O)N1CCN(C)CC1 [VIB-0068875] (H-[dD]IYWSG-{Piperazinyl(4-Me)}; N-terminus assumed),41.8
3,CC[C@H](C)[C@H](NC(=O)[C@@H](CC(=O)O)NC(=O)C1(N)CCC1)C(=O)N[C@@H](Cc1ccc(O)cc1)C(=O)N[C@@H](Cc1c[nH]c2ccccc12)C(=O)N[C@@H](CO)C(=O)O [VIB-0068884] (H-[Ac4c][dD]IYWS-OH; C-terminus assumed),41.5
4,CC[C@H](C)[C@H](NC(=O)[C@H](N)CC(=O)O)C(=O)N[C@@H](Cc1ccc(CO)cc1)C(=O)N[C@@H](Cc1c[nH]c2ccccc12)C(=O)N[C@@H](CO)C(=O)O [VIB-0068896] (H-[dD]I[X4]WS-OH; N-terminus and C-terminus assumed),56.6
5,"CC[C@H](C)[C@H](NC(=O)[C@H](N)CC(=O)O)C(=O)N[C@@H](Cc1ccc(O)cc1)C(=O)N[C@@H](Cc1c[nH]c2ccccc12)C(=O)N[C@@H](CO)C(=O)O [VIB-0068902, dIYWS]",76.8
6,CC[C@H](C)[C@H](NC(=O)[C@H](N)CC(=O)O)C(=O)N[C@@H](Cc1cn(CC)c2ccccc12)C(=O)N[C@@H](Cc1c[nH]c2ccccc12)C(=O)N[C@@H](CO)C(=O)O [VIB-0068904] (H-[dD]I[X1]WS-OH; N-terminus and C-terminus assumed),26.7
7,CC[C@H](C)[C@H](NC(=O)[C@H](N)CC(=O)O)C(=O)N[C@@H](Cc1ccc(OC)c(C)c1)C(=O)N[C@@H](Cc1c[nH]c2ccccc12)C(=O)N[C@@H](CO)C(=O)O [VIB-0068906] (H-[dD]I[X3]WS-OH; N-terminus and C-terminus assumed),70.8
8,CC[C@H](C)[C@H](NC(=O)[C@H](N)CC(=O)O)C(=O)N[C@@H](Cc1cccc(C(=O)O)c1)C(=O)N[C@@H](Cc1c[nH]c2ccccc12)C(=O)N[C@@H](CO)C(=O)O [VIB-0068908],53.1
9,CC[C@H](C)[C@H](NC(=O)[C@H](N)CC(=O)O)C(=O)N[C@@H](Cc1ccc(N)cc1)C(=O)N[C@@H](Cc1c[nH]c2ccccc12)C(=O)N[C@@H](CO)C(=O)O [VIB-0068909],44.2
10,CC[C@H](C)[C@H](NC(=O)[C@H](N)CC(=O)O)C(=O)N[C@@H](Cc1ccc(Cl)cc1)C(=O)N[C@@H](Cc1c[nH]c2ccccc12)C(=O)N[C@@H](CO)C(=O)O [VIB-0068912],66.2
11,"CC[C@H](C)[C@H](NC(=O)[C@H](N)CC(=O)O)C(=O)N[C@@H](Cc1ccc(O)cc1)C(=O)N[C@@H](Cc1ccc(O)cc1)C(=O)N[C@@H](CO)C(=O)O [VIB-0068914, dIYYS] (H-[dD]IYYS-OH; N-terminus and C-terminus assumed)",72.4
12,PVHMS [VIB_P44],-7
